Patent publication US20250154231A1 (RQBIO COVID, published 2025)
Where two headings read alike, the source gives them in different places.

B1: Omi25 (antibody, V domains shown)
VH: QVQLVESGGGLVQPGRSLRLSCAASGFTFDDYAMHWVRQVPGKGLEWVSGISWNSGSIVYADFVKGRFTIARDNAKNSLFLQMNSLRAEDTALYYCAKSTALRHQYYYGMDVWGQGTTVTVSS
VL: AIQMTQSPSSLSASVGDRVTITCRTSQTISSYLNWYQQKPGKAPKLLIYDASSLQSGVPSRFSGSGYGTDFTLTISSLQPEDFATYFCQQSYNTPYAFGQGTKVEIK
B2: Omi-18 Fab (Fab, V domains shown)
VH: QVQLVESGGGLIQPGGSLRLSCAASGITVSSNYMTWVRQAPGKGLEWVSLLYAGGSAFYADSVKGRFTISRDNSKNTLYLLMNSLRVGDTAVYYCARDLQVYGMDVWGQGTTVTVSS
VL: SYELTQPPSVSVAPGQTARITCGGNNDGAKSVHWYQQKPGQAPVLVVYDDSDRPSGIPERFSGSNSGNTATLTITRIEAGDEADYYCQVWDSSRDHVFGTGTKVTVL
B3: Omi26 (antibody, V domains shown)
VH: QVQLVQSGTEVKKPGASVKVSCKASDYTFTRFGIIWVRQAPGQGLEWMGQINPYNGNTDYAQKFQGRVTLTTDTSTNTAYMELRSLRSDDTAVYYCARSAGSPTGLDYWGQGTLVTVSS
VL: QSVVTQPPSVSEAPRQRVTISCSGSNSNIGNNAVNWYQQLPGKAPKLLVYYDDLLPSGVSDRFSGSKSGTSASLAISGLQSEDKADYYCAAWDDSLNALVFGGGTKLTVL
B4: Omi28 (antibody, V domains shown)
VH: EVQLVESGGGLVQPGGSLRLSCAASGVIVSSNYMSWVRQAPGKGLQWVSVIYSGGSTFYADSVKGRFTISRDNSKNTLYLQMNSLRAEDTAVYYCARDLLEAGGTDYWGQGTLVTVSS
VL: DVVMTQSPGTLSLSPGERATLSCRASQFIGSSYLAWYQQKPGQAPRLLIYGASNRATGVPDRFSGSGSGTDFTLTISRLEPEDFAVYYCQQYGSAPGTFGQGTKVEIK
B5: Omi27 (antibody, V domains shown)
VH: EVQLLESGGGLVQPGGSLRLSCVASGLTVSSNYMSWVRQAPGKGLEWVSIIYPGGTTYYADSVKGRFTTSRDKSKNTLYLQMNSLRAEDTAVYYCARDLAVAGGMDVWGQGTTVTVSS
VL: EIVMTQSPSSLSASVGDRVTITCRASQGIGNDLGWYQQKPGKAPKVLIYAASNLQSGVPSRFSGSGSGTDFTLTISSLQPEDFATYYCLQDSNYPYTFGQGTKVEIK
B6: Omi35 (antibody, V domains shown)
VH: QVQLVESGGGLVQPGRSLRLSCAASGFTFDDYAMHWVRQAPGKGLEWVSGSTWNSGTIDYADSVKGRFTISRDNAKNSLYLQMNSLRAEDTALYYCAKDRFRKGCSSTGCYKENYGMDVWGQGTTVTVSS
VL: QSVVTQPPSVSVAPGQTARITCGGTNIGSKSVHWYQQKPGQAPVLVVYDDSDRPSGIPERFSGSNSGNTATLTITWVEAGDEADYYCQVWDSSSDNVLFGGGTKLTVL
B7: Omi39 (antibody, V domains shown)
VH: QVQLVESGGVVVQPGGSLRLSCAASGFSFDDYSMHWVRQAPGKGLEWVSVIYWDGVSKYYADSVKGRFTISRDNSKNSLYLQMNSLRTEDTAVYYCAKDSEDCSSTSCYMDVWGKGTTVTVSS
VL: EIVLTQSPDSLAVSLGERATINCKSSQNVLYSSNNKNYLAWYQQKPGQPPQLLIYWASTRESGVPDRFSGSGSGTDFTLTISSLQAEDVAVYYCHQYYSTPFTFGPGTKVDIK
B8: Omi38 (antibody, V domains shown)
VH: QVQLVESGAEVKKPGSSVKVSCKASGGNFNMYTISWVRQAPGRGLEWMGRFIPIANKANYAQNFPGRVTITADKSTSTVYMELRSLTSDDTAVYYCARSGSYDAFDVWGQGTMVTVSS
VL: AIRMTQSPSTLSASVGDRVTITCRASQTINSWLAWYQQKPGKAPKLLIYDASNLESGVPSRFSGSGSGTEFTLTISSLQPDDFATYYCQQYESYSPITFGQGTRLEIK
B9: Omi33 (antibody, V domains shown)
VH: EVQLLESGGGVVQPGRSLRLSCAASGFKFSDYGMHWVRQAPGKGLEWVAVYWYDGGTKFYADSVKGRFTISRDNSKNTLYLQMSSLRVEDTAVYYCARDTAPPDYWGQGTLVTVSS
VL: EIVLTQSPGTLSLSPGERATLSCRASQSISSNFLAWYQQKPGQAPRLLIYGASSRATGIPDRFSGSGSGTDFTLTISRLEPEDFAVYYCQQYGTSPRLTFGGGTKVDIK
B10: Omi-20 Fab (Fab, V domains shown)
VH: EVQLVESGGGLVQPGGSLRLSCEASEITVSSNYMNWVRQAPGKGLEWVSVLFAGGTTYYADSVKGRFTISRDNSKNTLYLQMNTLRIEDTAIYYCARDLVAYGVDVWGQGTTVTVSS
VL: AIQMTQSPSFLSASVGDRVTITCRASQGISGDLAWYQQKPGKAPKLLIYAASTLQSGVPSRFSGSGSGTEFTLTISSLQPEDFATYYCQHLNSYPLTFGGGTKVEIK
B11: Omi02 (antibody, V domains shown)
VH: EVQLVESGAEVKKPGSSVKVSCKASGGTFSSYAINWVRQAPGQGLEWMGGIIPIFRTPHYAQKFQGRVTITADESTGTAYMELSSLRSEDTAVYYCASPSCGGDCPQYLKSSKLDWYFDLWGRGTLVTVSS
VL: VIWMTQSPGTLSLSPGERATLSCRASQSVSSTYLAWYQQKPGQAPRLLIYGASSRATGIPDRFSGSGSGTDFTLTISRLEPEDFAVYYCQHYGSSPLTFGQGTRLEIK
B12: Omi08 (antibody, V domains shown)
VH: EVQLVESGAEVKRPGASVKVSCKASGYTFTNYFMHWVRQAPGQGLEWMGVINPSDGGASYPQKFQGRVTMTRDTSTSTVYMDLSSLRSEDTAVYSCARGAFDVSGSWYVPFDYWGQGTLVTVSS
VL: QSVVTQPPSVSGAPGQRVTISCTGSSSNIGAGYDVHWYQQLPGAAPKLLIYGNTNRPSGVPDRFSGSKSGTSASLAITGLQAEDEADYYCQSYDITLSGSGYVFGTGTKVTVL
B13: Omi24 (antibody, V domains shown)
VH: QVQLVESGAEVKKPGSSVKVSCKASGGTFSSHGVIWVRQAPGQGLEWMGGIIPIFPTANYAQKFQGRVTITADKPSNTAYMELSSLRSEDTAVYYCARARGEHDSVWGSFHYYFDYWGQGTLVTVSS
VL: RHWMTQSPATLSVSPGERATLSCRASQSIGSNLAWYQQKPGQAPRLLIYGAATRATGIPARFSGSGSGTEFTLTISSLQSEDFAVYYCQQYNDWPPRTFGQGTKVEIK
B14: Omi09 (antibody, V domains shown)
VH: QVQLVESGGGVVQPGRSLRLSCAASGFTFRTYAVHWVRQAPGKGPEWVAVISYDGSNKYYADSVKGRFTLSRDTSKNTLYLQMNSLRAEDTAVYYCASRGDTVTTGDAFDIWGQGTMVTVSS
VL: SYELTQPPSVSVSPGQTARITCSGDALPKQYTYWYQQKPGQPPVLVIYKDSERPSGIPERFSGSSSGTTVTLTISGVQAEDEADYYCQSTDSSATYPGNVVFGGGTKLTVL
B15: Omi23 (antibody, V domains shown)
VH: QVQLQESGPGLVKSSQTLSLTCTVSGDSISRGGYYWSWIRQHPGKGLEWIGSIYYSGSTYYNPSLKSRFTISVDTSKNQFSLKLSSVTAADTAVYHCAREIGFLDYWGQGTLVTVSS
VL: AIQMTQSPSSLSASVGDRVTITCRASQAISNSLAWYQQKPGKAPKLLLYAASTLESGVPSRFSGSGSGTDFTLTISSLQPEDFATYFCQQYYSTPPRTFGQGTKVDIK
B16: Omi30 (antibody, V domains shown)
VH: EVQLVESGAEVKKPGSSVKVSCKASGGTFSRYAISWVRQAPGQGLEWMGGIIPIFDATNYAQKFHDRVTITADKSASTAYMELSSLRSDDTAVYYCARERTYCSGGTCYGGYFYYGMDVWGQGTTVTVSS
VL: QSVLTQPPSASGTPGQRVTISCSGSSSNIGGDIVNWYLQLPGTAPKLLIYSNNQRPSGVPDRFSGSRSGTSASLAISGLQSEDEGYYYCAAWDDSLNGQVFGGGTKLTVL
B17: Omi34 (antibody, V domains shown)
VH: QVQLVQSGAEVKKPGSSVKVSCKASGGTFSSYGIRWVRQAPGQGLEWMGGIIPVFGATNYAQKFQDRVTITADKSTATAYMELSSLKSDDTAVYFCARDALSASGWTGPFDSWGQGTLVTVSS
VL: QSVLTQPPSVSGAPGQRVTISCTGSSSNIGADYDVHWYQQLPGAAPKLLIYGNNNRPSGVPDRFSGSKSGTSASLAITGLQAEDEADYYCQSYDSSQNAFYVFGTGTKVTVL
B18: Omi12 (antibody, V domains shown)
VH: EVQLVESGPEVKKPGTSVKVSCKASGFSFSMSAMQWVRRARGQRLEWIGWIVPGSGNANYAQKFQERVTITRDESTNTGYMELSSLRSEDTAVYYCAAPHCNKTNCYDAFDIWGQGTMVTVSS
VL: AIRMTQSPGTLSLSPGERATLSCRASQSVRSSYLAWYQQKPGQAPRLLIYGASTRATGIPDRFSGSGSGTDFILTINRLEPEDLAVYYCQQFGSSPWTFGQGTKVDIK
B19: Omi29 (antibody, V domains shown)
VH: QVQLVESGGGLVQPGGSLRLSCAASGLIVSRNYMSWVRQAPGKGLEWVSLIYAGGSTFYSDSVKGRFTISRHSSENTLFLQMNSLRAEDTAVYYCARDLVHYGMDVWGQGTTVTVSS
VL: NFMLTQPASVSGSPGQSITISCTGTSSDVGGYNYVSWYQQHPGKAPKLMIYDVSNRPSGVSNRFSGSNSGNTASLTISGLQAEDEADYYCSSYTSGSTWVFGGGTKLTVL
B20: Omi16 (antibody, V domains shown)
VH: EVQLVESGGGVVQPGGSLRLSCAASGIIVSANYMTWVRQAPGKGLEWVSVIYPGGSTFYADSVKGRFTISRDNSKNTLYLQMNSLRVEDSAVYYCARDLELAGFNDFWGQGTLVTVSS
VL: DVVMTQSPGTLALSPGERATLSCRTSQSVSSNYLAWYQQKPGQAPRLLIYGASSRATGIPDRFSGSGSGTDFTLTISRLEPEDFAVYYCQQFGSSPRYTFGQGTKVEIK
B21: Omi17 (antibody, V domains shown)
VH: QVQLVESGGGVVQPGGSLRLSCAASGVTVSSNYMSWVRQAPGKGLEWVSVLYAGGSTFYADSVKGRFTISRDNSKNTLYLQMNSLRAEDTAAYYCARDLAVAGFLDSWGQGTLVTVSS
VL: DIVMTQSPGTLSLSPGERATLSCRASQGVSSIYLAWYQQKPGQAPRLVLYGASSRATGIPDRFSGSGSGTDFTLTISRLEPEDFAVYYCQQYGSSPRYTFGQGTKVEIK

Experiments:
Omicron BA.1 RBD = target: T1, Omicron BA.1 RBD (SARS-CoV-2, UniProt P0DTC2 333-528); assay: ELISA
T1 construct: domain: RBD

Omicron BA.2 RBD [1] = target: T2, Omicron BA.2 RBD (SARS-CoV-2, UniProt P0DTC2 333-528)
Omicron BA.2 RBD [2] = target: T2, Omicron BA.2 RBD; remark: listed apart in the source
Omicron BA.2 RBD [3] = target: T2, Omicron BA.2 RBD; remark: listed apart in the source

Row | Binder | binding result (Omicron BA.1 RBD) | also measured
1 | B1 | binds | –
2 | B2 | – | Kd (Omicron BA.2 RBD [1]): 4.3 nM; T1/2 (Omicron BA.2 RBD [1]): 20 min; koff (Omicron BA.2 RBD [1]): 0.00057 s⁻¹; kon (Omicron BA.2 RBD [1]): 130000 M⁻¹ s⁻¹
3 | B3 | binds | –
4 | B4 | binds | –
5 | B5 | binds | –
6 | B6 | binds | –
7 | B7 | binds | –
8 | B8 | binds | –
9 | B9 | binds | –
10 | B10 | – | Kd (Omicron BA.2 RBD [2]): 138 nM; T1/2 (Omicron BA.2 RBD [2]): 3.2 min; koff (Omicron BA.2 RBD [2]): 0.0036 s⁻¹; kon (Omicron BA.2 RBD [2]): 26000 M⁻¹ s⁻¹
11 | B11 | binds | –
12 | B12 | binds | –
13 | B13 | binds | –
14 | B14 | binds | –
15 | B15 | binds | –
16 | B16 | binds | –
17 | B17 | binds | –
18 | B18 | – | Kd (Omicron BA.2 RBD [3]): 0.13 nM; T1/2 (Omicron BA.2 RBD [3]): 20 min; koff (Omicron BA.2 RBD [3]): 0.00058 s⁻¹; kon (Omicron BA.2 RBD [3]): 4.3e+06 M⁻¹ s⁻¹
19 | B19 | binds | –
20 | B20 | binds | –
21 | B21 | binds | –
